{"source": "the supplement of paper PMC10567573", "parents": {"B1": {"name": "BTBD10 (parent)", "chain": "DRKLHSRPRKLYKHSSTSSRIAKG"}}, "data": [{"variants_of": "B1", "experiment": "protein stability index of a GFP-peptide fusion (GPS, HEK-293T) (PSI 1-6); higher = more stable", "conditions": "c terminus: a fixed tail appended", "values": [{"variant": "DRKLHSRPRKLYKHSSTSSRSAKG", "note": "[I21S]", "protein stability index": 4.59}, {"variant": "DRKLHSRPRKLYKHSSTSSRTAKG", "note": "[I21T]", "protein stability index": 4.18}, {"variant": "DRKLHSRPRKLYKHSSTSSRVAKG", "note": "[I21V]", "protein stability index": 3.74}, {"variant": "DRKLHSRPRKLYKHSSTSSRWAKG", "note": "[I21W]", "protein stability index": 3.33}, {"variant": "DRKLHSRPRKLYKHSSTSSRYAKG", "note": "[I21Y]", "protein stability index": 4.48}, {"variant": "DRKLHSRPRKLYKHSSTSSRICKG", "note": "[A22C]", "protein stability index": 3.11}, {"variant": "DRKLHSRPRKLYKHSSTSSRIDKG", "note": "[A22D]", "protein stability index": 4.01}, {"variant": "DRKLHSRPRKLYKHSSTSSRIEKG", "note": "[A22E]", "protein stability index": 3.67}, {"variant": "DRKLHSRPRKLYKHSSTSSRIFKG", "note": "[A22F]", "protein stability index": 2.99}, {"variant": "DRKLHSRPRKLYKHSSTSSRIGKG", "note": "[A22G]", "protein stability index": 3.91}, {"variant": "DRKLHSRPRKLYKHSSTSSRIHKG", "note": "[A22H]", "protein stability index": 3.58}, {"variant": "DRKLHSRPRKLYKHSSTSSRIIKG", "note": "[A22I]", "protein stability index": 3.58}, {"variant": "DRKLHSRPRKLYKHSSTSSRIKKG", "note": "[A22K]", "protein stability index": 3.68}, {"variant": "DRKLHSRPRKLYKHSSTSSRILKG", "note": "[A22L]", "protein stability index": 3.03}, {"variant": "DRKLHSRPRKLYKHSSTSSRIMKG", "note": "[A22M]", "protein stability index": 3.44}, {"variant": "DRKLHSRPRKLYKHSSTSSRINKG", "note": "[A22N]", "protein stability index": 3.34}, {"variant": "DRKLHSRPRKLYKHSSTSSRIPKG", "note": "[A22P]", "protein stability index": 3.99}, {"variant": "DRKLHSRPRKLYKHSSTSSRIQKG", "note": "[A22Q]", "protein stability index": 4.15}, {"variant": "DRKLHSRPRKLYKHSSTSSRIRKG", "note": "[A22R]", "protein stability index": 4.5}, {"variant": "DRKLHSRPRKLYKHSSTSSRISKG", "note": "[A22S]", "protein stability index": 4.15}, {"variant": "DRKLHSRPRKLYKHSSTSSRITKG", "note": "[A22T]", "protein stability index": 3.55}, {"variant": "DRKLHSRPRKLYKHSSTSSRIVKG", "note": "[A22V]", "protein stability index": 3.71}, {"variant": "DRKLHSRPRKLYKHSSTSSRIWKG", "note": "[A22W]", "protein stability index": 3.47}, {"variant": "DRKLHSRPRKLYKHSSTSSRIYKG", "note": "[A22Y]", "protein stability index": 3.7}, {"variant": "DRKLHSRPRKLYKHSSTSSRIAAG", "note": "[K23A]", "protein stability index": 3.72}, {"variant": "DRKLHSRPRKLYKHSSTSSRIACG", "note": "[K23C]", "protein stability index": 3.17}, {"variant": "DRKLHSRPRKLYKHSSTSSRIADG", "note": "[K23D]", "protein stability index": 3.78}, {"variant": "DRKLHSRPRKLYKHSSTSSRIAEG", "note": "[K23E]", "protein stability index": 4.08}, {"variant": "DRKLHSRPRKLYKHSSTSSRIAFG", "note": "[K23F]", "protein stability index": 3.56}, {"variant": "DRKLHSRPRKLYKHSSTSSRIAGG", "note": "[K23G]", "protein stability index": 4.08}, {"variant": "DRKLHSRPRKLYKHSSTSSRIAHG", "note": "[K23H]", "protein stability index": 3.41}, {"variant": "DRKLHSRPRKLYKHSSTSSRIAIG", "note": "[K23I]", "protein stability index": 2.92}, {"variant": "DRKLHSRPRKLYKHSSTSSRIALG", "note": "[K23L]", "protein stability index": 3}, {"variant": "DRKLHSRPRKLYKHSSTSSRIAMG", "note": "[K23M]", "protein stability index": 2.89}, {"variant": "DRKLHSRPRKLYKHSSTSSRIANG", "note": "[K23N]", "protein stability index": 4.61}, {"variant": "DRKLHSRPRKLYKHSSTSSRIAPG", "note": "[K23P]", "protein stability index": 3.44}, {"variant": "DRKLHSRPRKLYKHSSTSSRIAQG", "note": "[K23Q]", "protein stability index": 4.1}, {"variant": "DRKLHSRPRKLYKHSSTSSRIARG", "note": "[K23R]", "protein stability index": 3.27}, {"variant": "DRKLHSRPRKLYKHSSTSSRIASG", "note": "[K23S]", "protein stability index": 3.41}, {"variant": "DRKLHSRPRKLYKHSSTSSRIATG", "note": "[K23T]", "protein stability index": 3.58}, {"variant": "DRKLHSRPRKLYKHSSTSSRIAVG", "note": "[K23V]", "protein stability index": 3.31}, {"variant": "DRKLHSRPRKLYKHSSTSSRIAWG", "note": "[K23W]", "protein stability index": 3.04}, {"variant": "DRKLHSRPRKLYKHSSTSSRIAYG", "note": "[K23Y]", "protein stability index": 2.98}, {"variant": "DRKLHSRPRKLYKHSSTSSRIAKA", "note": "[G24A]", "protein stability index": 3.61}, {"variant": "DRKLHSRPRKLYKHSSTSSRIAKC", "note": "[G24C]", "protein stability index": 3.3}, {"variant": "DRKLHSRPRKLYKHSSTSSRIAKD", "note": "[G24D]", "protein stability index": 3.65}, {"variant": "DRKLHSRPRKLYKHSSTSSRIAKE", "note": "[G24E]", "protein stability index": 4.5}, {"variant": "DRKLHSRPRKLYKHSSTSSRIAKF", "note": "[G24F]", "protein stability index": 3.19}, {"variant": "DRKLHSRPRKLYKHSSTSSRIAKH", "note": "[G24H]", "protein stability index": 3.35}, {"variant": "DRKLHSRPRKLYKHSSTSSRIAKI", "note": "[G24I]", "protein stability index": 3.21}, {"variant": "DRKLHSRPRKLYKHSSTSSRIAKK", "note": "[G24K]", "protein stability index": 4.14}, {"variant": "DRKLHSRPRKLYKHSSTSSRIAKL", "note": "[G24L]", "protein stability index": 3.28}, {"variant": "DRKLHSRPRKLYKHSSTSSRIAKM", "note": "[G24M]", "protein stability index": 3.38}, {"variant": "DRKLHSRPRKLYKHSSTSSRIAKN", "note": "[G24N]", "protein stability index": 4.3}, {"variant": "DRKLHSRPRKLYKHSSTSSRIAKP", "note": "[G24P]", "protein stability index": 4.05}, {"variant": "DRKLHSRPRKLYKHSSTSSRIAKQ", "note": "[G24Q]", "protein stability index": 3.92}, {"variant": "DRKLHSRPRKLYKHSSTSSRIAKR", "note": "[G24R]", "protein stability index": 4}, {"variant": "DRKLHSRPRKLYKHSSTSSRIAKS", "note": "[G24S]", "protein stability index": 3.65}, {"variant": "DRKLHSRPRKLYKHSSTSSRIAKT", "note": "[G24T]", "protein stability index": 4}, {"variant": "DRKLHSRPRKLYKHSSTSSRIAKV", "note": "[G24V]", "protein stability index": 3.74}, {"variant": "DRKLHSRPRKLYKHSSTSSRIAKW", "note": "[G24W]", "protein stability index": 2.65}, {"variant": "DRKLHSRPRKLYKHSSTSSRIAKY", "note": "[G24Y]", "protein stability index": 3.33}]}]}
